Test results taken from patent US6297356, “Telomere repeat binding factors and diagnostic and therapeutic use thereof” (The Rockfeller University).

Target: T1, TRF1 (MTRF12) (Mus musculus, UniProt P70371 SEQ:1-421)
T1 sequence: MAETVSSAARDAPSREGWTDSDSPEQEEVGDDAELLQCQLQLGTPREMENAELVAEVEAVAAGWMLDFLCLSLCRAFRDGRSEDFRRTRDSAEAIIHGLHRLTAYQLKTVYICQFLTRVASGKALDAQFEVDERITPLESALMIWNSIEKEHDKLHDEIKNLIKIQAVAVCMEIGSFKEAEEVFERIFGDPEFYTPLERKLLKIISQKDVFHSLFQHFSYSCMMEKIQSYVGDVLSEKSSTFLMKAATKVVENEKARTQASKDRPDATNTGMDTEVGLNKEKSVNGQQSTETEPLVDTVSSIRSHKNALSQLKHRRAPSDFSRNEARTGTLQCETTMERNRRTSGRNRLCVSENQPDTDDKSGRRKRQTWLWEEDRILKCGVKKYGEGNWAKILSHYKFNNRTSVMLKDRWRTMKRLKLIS
Assay: EMSA; reticulocyte lysate
Settings: chain copies: 2; label: labelled
Source text: Figure 6: FIG. 6 depicts a gel-shift experiment showing telomeric repeat binding activity of protein encoded by the mouse MTRF12 cDNA. The cDNA was transcribed using T3 RNA polymerase and translated in a rabbit reticulocyte lysate. The probe is a $(TTAGGG)12$-containing restriction fragment. Competitions were done with plasmids containing long arrays of telomeric DNAs with the indicated sequence. Gel-shift methods are as described by (Zhong et al, 1992). […] Shown is two interphase nuclei in which the anti-FLAG antibodies detect a speckled TRF pattern (green) against the background of DAPI stained DNA (blue). […] Shown is a metaphase spread in which the anti-HA antibody detects TRF at each chromosome end (green). The DNA is stained with DAPI (blue).
The mouse cDNA (MTRF12) contained its own initiator codon and was transcribed and translated without further modification using the T3 promoter in its pBluescript vector. Similar to the human cDNA, a ~60 kD protein was synthesized that bound TTAGGG repeats but not TTGGGG or TTAGGC repeats (FIG. 6).

B1: (TTAGGG)12 restriction fragment (dsDNA)
DNA 1: GTACCCGGGGATCGTGACTCTAGAGGGGCCCTAACCCTAACCCTAACCCTAACCCTAACCCTAACCCTAACCCTAACCCTAACCCTAACCCTAACCCTAACCCTAACCCGGGTCGAATTCGATCTCTAGAGTCGACCTGCAGGCATGC
DNA 2: GCATGCCTGCAGGTCGACTCTAGAGATCGAATTCGACCCGGGTTAGGGTTAGGGTTAGGGTTAGGGTTAGGGTTAGGGTTAGGGTTAGGGTTAGGGTTAGGGTTAGGGTTAGGGTTAGGGCCCCTCTAGAGTCACGATCCCCGGGTAC
Question: Does B1 bind?
Answer: Result: binds
